Source: patent publication US20030103948A1 (NEORX, published 2003)

Target: T1, CD20 (human, UniProt P11836 1-297)
T1 construct: whole, on cells; also called CD20-positive Ramos cell line; Ramos cells
T1 sequence (looked up): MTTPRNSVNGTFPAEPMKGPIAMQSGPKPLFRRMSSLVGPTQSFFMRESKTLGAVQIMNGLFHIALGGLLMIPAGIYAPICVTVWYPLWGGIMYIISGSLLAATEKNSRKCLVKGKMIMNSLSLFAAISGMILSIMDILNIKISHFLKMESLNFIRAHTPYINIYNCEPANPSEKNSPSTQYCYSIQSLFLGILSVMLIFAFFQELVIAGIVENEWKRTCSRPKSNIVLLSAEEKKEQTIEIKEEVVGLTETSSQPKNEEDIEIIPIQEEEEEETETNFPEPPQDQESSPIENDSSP
Test: saturation binding of radiolabeled antibody to Ramos cells (10^7 cells), nonlinear regression
Protocol: Avidity was determined using saturation binding experiments that measure specific binding of radiolabeled mAb or fusion protein (0.025-50 ng/ml) at equilibrium in the presence of excess antigen (10⁷ cells). Nonspecific binding was determined in the presence of excess cold mAb or fusion protein (50 μg/ml). […] The equilibrium dissociation constant (Kd) was calculated from nonlinear regression analysis of nM bound vs. nM radioligand using immunoreactivity-adjusted antibody concentrations.
Kd and Kₐ were calculated using nonlinear regression analysis of nM bound vs. nM radioligand.

B1: B9E9 mAb (antibody, V domains shown)
VH: QVQLVQSGAELVKPGASVKMSCKASGYTFTSYNMHWVKQTPGQGLEWIGAIYPGNGDTSYNQKFKGKATLTADKSSSTAYMQLSSLTSEDSAVYYCARAQLRPNYWYFDVWGAGTTVTVSS
VL: DIVLSQSPAILSASPGEKVTMTCRASSSVSYMHWYQQKPGSSPKPWIYATSNLASGVPARFSGSGSGTSYSLTISRVEAEDAATYYCQQWISNPPTFGAGTKLELK
modifications: Used unlabelled, fluorescein-labelled (FACS tracer) and radiolabelled (avidity assay).
notes: also called divalent B9E9 antibody; murine anti-CD20 antibody B9E9
- Ka: 1.02e+08 M⁻¹
- Kd: 9.75 nM
